The text below walks through data of US6528098B2, “Preparation of a therapeutic composition” (Advanced Viral Research Corp., priority 1996, dated 2003).

For one series, the system named is pronase from S. griseus. Kind of series: Treatment of Product R with pronase, SDS-PAGE on a 16% gel. It is filed as physicochemical. Also noted: key: “−” represents no substantial alteration of the stainable bands; “+” represents substantial alteration of the stainable bands. Conditions: 2 mg/ml pronase, 40° C., 75 minutes. On the procedure: (§1) The biochemical properties of the peptides: Some biochemical properties of the silverstainable peptide components of Product R are analyzed using various catabolic enzymes, as described below:
The treatment with pronase (Boehringer Mannlheim. USA): Pronase is a non-specific protease, acts on both native and denatured proteins. It breaks down virtually all proteins into their individual amino acids. The preparation contains various types of endo-peptidases such as srine and metalloproteases, exo-peptidases such as carboypepsidases, neutral protease and neutral and alkaline phosphatases. A Product R sample is incubated in a reaction buffer containing 100 mM Tris-HCl, pH 7.4; 10 mM CaCl2; 0.1% SDS and 2 mg/ml of pronase from S. griseus at 40° C. for 75 minutes and then subject to SDS-PAGE on a 16% gel. All silver stained components disappear after such treatment of pronase.
(§2) A summary of the above described treatments by catabolic enzymes is provided in the following TABLE III, and the results of the treatment are shown in FIG. 5, wherein “−” represents no substantial alteration of the stainable bands and “+” represents substantial alteration of the stainable bands.

Another series has as its target T1, trypsin (Bos taurus, UniProt P00760).
T1 construct: purchased Boehringer Mannheim USA
T1 sequence (P00760 24-246): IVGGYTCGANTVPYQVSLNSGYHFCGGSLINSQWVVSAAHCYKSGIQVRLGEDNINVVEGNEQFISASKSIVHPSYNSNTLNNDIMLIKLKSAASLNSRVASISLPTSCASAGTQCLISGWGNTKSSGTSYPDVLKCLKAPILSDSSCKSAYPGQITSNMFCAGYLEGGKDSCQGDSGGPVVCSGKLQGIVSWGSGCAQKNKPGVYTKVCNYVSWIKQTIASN
Kind of series: Treatment of Product R with trypsin, SDS-PAGE on a 16% gel. It is filed as physicochemical. Conditions: 250 μg/ml trypsin, 25° C., 19 hours. Also noted: key: “−” represents no substantial alteration of the stainable bands; “+” represents substantial alteration of the stainable bands. On the procedure: as §1
The treatment with trypsin (Boehringer Mannheim USA): Trypsin is a serine protease, which specifically cleaves peptide bonds of lysine and arginine at the C-terminal at pH 7.5-9.0. A Product R sample is incubated in a reaction buffer having 100 mM Tris-HCl, pH 8.0, 0.1% SDS and 250 μg/ml of sequencing grade trypsin at 25° C. for 19 hours and then subject to SDS-PAGE on a 16% gel. While serum proteins will be broken down to peptides smaller than 4.3 KDa under such reaction conditions, none of the silver stained components of Product R are affected by trypsin.
as §2

The target of series [1] is T2, bovine pancreatic Ribonuclease A (Bos taurus, UniProt P61823).
T2 construct: purchased ICN Biochemicals, USA
T2 sequence (P61823 27-150): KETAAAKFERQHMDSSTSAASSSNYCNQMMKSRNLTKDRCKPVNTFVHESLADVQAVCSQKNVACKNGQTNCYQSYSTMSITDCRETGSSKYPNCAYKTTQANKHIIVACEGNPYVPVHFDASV
Kind of series: Treatment of Product R with ribonuclease A, SDS-PAGE on a 16% gel. The series is classed as physicochemical. Also noted: key: “−” represents no substantial alteration of the stainable bands; “+” represents substantial alteration of the stainable bands. Conditions: 37° C., about 1 hour. On the procedure:
as §1
The treatment with ribonuclease A (ICN Biochemicals, USA): Ribonuclease A is a pyrimidine specific endoribonuclease that acts on single stranded RNA. A Product R sample is incubated in a reaction buffer containing 10 mM Tris-HCl, pH 7.4, 3 mM MgCl2, and I mg/ml of bovine pancreatic Ribonuclease A at 37° C. for about 1 hour and subject to SDS-PAGE on a 16% gel. […] The resistance to ribonuclease A excludes the possibility of the presence of a RNA fragment attached to the peptide.
as §2

Series [2] deals with MCP-1 secretion by U937 cells. Kind of series: MCP-1 secretion by cultured U937 cells, ELISA. The series is classed as cell-based, human. Conditions: for production of monocyte chemotactic protein 1 (MCP-1) in U937 cells: general statement; for up-regulation of MCP-1 secretion compared with Product R: peptide solutions 2 mg/ml, equimolar mixture 4 mg/ml, final concentration 10% in culture media, FIG. 20. On the procedure: Ammonium sulfate precipitation of Product U peptides: Product U samples are lyophilized and re-dissolved in 20% of original sample volume in water (5X concentrated). Ammonium sulfate crystals are added to the solution to reach 60% ammonium sulfate saturation (390 mg/ml solution). Gentle mixing solubilizes crystals. Protein precipitates appear after 30 mm to 1 hr incubation on ice and is centrifuged at 16,000×g for 30 min. at […]. The pellet is dissolved in 5% of original sample volume in water. The solution is desalted by gel filtration chromatography through a column of BioGel P-2. The column is eluted with 0.1X phosphate buffered saline (PBS). Only protein containing fractions are pooled and lyophilized.
Separation and isolation of two major neptide of Product R by gel ruhranon chromatography: A BioGel P-10 column (1.6 cm×52 cm) was equilibrated with 0.1X concentration of PBS. Two ml of 2X concentrated Product R was applied to the column, which was eluted with the same buffer at a flow rate of 25 mI/hr. Four mm. fractions were collected. All protein-containing fractions are analyzed by Sodium dodecyl sulfate polyacrilamide gel electrophoresis (SDS-PAGE). Fraction, containing primarily peptide A and peptide B are pooled separately and lyophilized. Peptide A pool contains very little contamination of the other peptide, however, the peptide B pool is highly enriched but still contains peptide A as a major contaminant. A reasonable estimate of peptide purity in the pools is >90% for peptide A and >75% for peptide B.
U937 cell culture: The U937 human hystiocytic lymphoma cell line was purchased from the American Type Culture Collection. […]
Product R or isolated peptide treatment: Cells (1.0×10^5/ml) are cultured in growth medium containing Product R, isolated purified peptide solution, mixed peptides solution or Dulbecco's PBS for 2 days. Following centrifugation, the culture supernatants are analyzed using chemokine ELISA kits. […]
Measurement of secreted IL-8 and MCP-1: The concentrations of IL-8 and MCP-1 in the culture supernatants are assayed by ELISA, using human IL-S ELISA kits (Endogen. Inc.) and Quantikine human MCP-1 ELISA kits (R&D Systems, Inc.), respectively, according to manufacturer's instructions (with slight modifications for the MCP-1 ELISA). […] Absorbances are measured on a PowerWave 200 Microplate Scanning Spectrophotometer. Dilutions of the standard protein supplied by each manufacturer are utilized to generate a four-parameter logistic fit standard curve, and the concentration of chemokine in each supernatant is determined by extrapolation.
For orientation: In an ELISA, binding on a coated surface is turned into a signal by an enzyme label.

Entries after “also recorded” stand apart in the source; their conditions may differ. No end group written: not given here.

Consider “KVLPVPQKAVPYPQRDMPIQAFLLYQEPVLG [Peptide-A, 31-amino-acid long peptide derived from bovine beta-casein, constituent of Product R]”, for which, in the series on pronase from S. griseus, the “Sensitivity of the Peptide Components of Product R (SDS-PAGE): Pronase (2 mg/ml)” value is “+”. For the same sequence, in the series with trypsin, the “Sensitivity of the Peptide Components of Product R (SDS-PAGE): Trypsin (250 μg/ml)” value is “−”. Further, the “Sensitivity of the Peptide Components of Product R (SDS-PAGE): Ribonuclease A (1 mg/ml)” value in series [1] is on record as “−”. In series [2], the “production of monocyte chemotactic protein 1 (MCP-1) in U937 cells” value is “capable of inducing the production” and the “up-regulation of MCP-1 secretion compared with Product R” value is reported as “failed to elicit a response same as that of Product R”.

As to “GEIPDAGGRIVDYYVGFSDSV (not fully specified (residue 18)) [Peptide-B, 21-amino acid peptide linked at serine 18 through a diphosphodiester group to the 3′-end of an adenylyl (3′-5′) adenosine moiety]”, the “Sensitivity of the Peptide Components of Product R (SDS-PAGE): Pronase (2 mg/ml)” value in the series on pronase from S. griseus is listed as “+”. In addition, the “Sensitivity of the Peptide Components of Product R (SDS-PAGE): Trypsin (250 μg/ml)” value in the series with trypsin is “−”. Also, the “Sensitivity of the Peptide Components of Product R (SDS-PAGE): Ribonuclease A (1 mg/ml)” value in series [1] is “−”. For the same sequence, the “production of monocyte chemotactic protein 1 (MCP-1) in U937 cells” value in series [2] is “capable of inducing the production; also recorded: contributes more to the activity than peptide-A”. Besides, the “up-regulation of MCP-1 secretion compared with Product R” value in series [2] (listed as peptide-B) is given as “failed to elicit a response same as that of Product R; also recorded: slightly more active than peptide A; also recorded: induces higher levels of secretion of IL-8 or MCP-1 than peptide-A”.
